{
  "source": "the RNAGym collection of RNA variant scans (doi:10.7554/elife.80360)",
  "parents": {"B1": {"name": "CPEB3 Ribozyme (parent)", "chain": "GGGGGCCACAGCAGAAGCGUUCACGUCGCGGCCCCUGUCAGAUUCUGGUGAAUCUGCGAAUUCUGCUGU"}},
  "data": [
    {"variants_of": "B1", "test": "self-cleavage, relative activity (ratio to wild type); higher = more cleavage; co-transcriptional", "values": [
      {"variant": "C54U U64A", "self-cleavage": 0.905},
      {"variant": "C54U U64C", "self-cleavage": 0.92},
      {"variant": "A52C A60G", "self-cleavage": 0.839},
      {"variant": "A52C A60C", "self-cleavage": 0.398},
      {"variant": "G50A C54G", "self-cleavage": 0.848},
      {"variant": "G50A C54U", "self-cleavage": 0.992},
      {"variant": "G56C G68C", "self-cleavage": 0.907},
      {"variant": "C54A U64G", "self-cleavage": 0.471},
      {"variant": "A51G A59C", "self-cleavage": 0.747},
      {"variant": "A51G A59G", "self-cleavage": 0.963},
      {"variant": "U53G U62G", "self-cleavage": 0.558},
      {"variant": "A51C U67C", "self-cleavage": 0.943},
      {"variant": "U53C G58U", "self-cleavage": 0.965},
      {"variant": "G50C A51G", "self-cleavage": 0.982},
      {"variant": "G50C A51C", "self-cleavage": 0.876},
      {"variant": "U53C U67A", "self-cleavage": 0.793},
      {"variant": "U53C U67C", "self-cleavage": 0.872},
      {"variant": "U53C U67G", "self-cleavage": 0.822},
      {"variant": "U55C U67A", "self-cleavage": 0.932},
      {"variant": "U55C U67G", "self-cleavage": 0.826},
      {"variant": "U53A C57A", "self-cleavage": 0.402},
      {"variant": "A52U G68A", "self-cleavage": 0.975},
      {"variant": "U55G C66G", "self-cleavage": 0.451},
      {"variant": "U53C G65U", "self-cleavage": 0.429},
      {"variant": "U55G A60U", "self-cleavage": 0.291},
      {"variant": "U55G A60G", "self-cleavage": 0.552},
      {"variant": "G50U U67G", "self-cleavage": 1.05},
      {"variant": "G50U U67A", "self-cleavage": 1.04},
      {"variant": "U53A U69C", "self-cleavage": 1.06},
      {"variant": "G50A G58C", "self-cleavage": 1},
      {"variant": "G50U A51C", "self-cleavage": 0.938},
      {"variant": "C54A G56C", "self-cleavage": 0.431},
      {"variant": "G50C U53A", "self-cleavage": 0.899},
      {"variant": "A51U G65C", "self-cleavage": 0.674},
      {"variant": "G50C U67A", "self-cleavage": 0.955},
      {"variant": "A51G U69C", "self-cleavage": 1.06},
      {"variant": "G56C G65A", "self-cleavage": 0.459},
      {"variant": "G56C G65C", "self-cleavage": 0.57},
      {"variant": "G56A U64C", "self-cleavage": 0.777},
      {"variant": "G56A U64G", "self-cleavage": 0.828},
      {"variant": "C54U U69A", "self-cleavage": 1.04},
      {"variant": "A51U C63A", "self-cleavage": 0.797},
      {"variant": "C54G U64A", "self-cleavage": 0.63},
      {"variant": "C54G U64C", "self-cleavage": 0.542},
      {"variant": "C54G C63A", "self-cleavage": 0.543},
      {"variant": "A52C U64A", "self-cleavage": 0.875},
      {"variant": "A51C G65U", "self-cleavage": 0.729},
      {"variant": "A52G U53G", "self-cleavage": 0.72},
      {"variant": "A52G U53C", "self-cleavage": 0.892},
      {"variant": "C54A G65C", "self-cleavage": 0.514},
      {"variant": "U55G G68U", "self-cleavage": 0.874},
      {"variant": "A52U C54U", "self-cleavage": 0.976},
      {"variant": "U55C G65U", "self-cleavage": 0.495},
      {"variant": "U55C G65A", "self-cleavage": 0.588},
      {"variant": "A51G A60C", "self-cleavage": 0.373},
      {"variant": "G56A C63A", "self-cleavage": 0.648},
      {"variant": "U53C C63U", "self-cleavage": 0.786},
      {"variant": "U55G U61A", "self-cleavage": 0.497},
      {"variant": "C54G U62C", "self-cleavage": 0.483},
      {"variant": "C54G U62G", "self-cleavage": 0.609},
      {"variant": "A52C G56A", "self-cleavage": 0.826},
      {"variant": "A52U C63U", "self-cleavage": 0.954},
      {"variant": "U53G C63U", "self-cleavage": 0.849},
      {"variant": "U53G C63G", "self-cleavage": 0.523},
      {"variant": "U53G C63A", "self-cleavage": 0.494},
      {"variant": "U53G U69A", "self-cleavage": 0.982},
      {"variant": "G50U C63G", "self-cleavage": 0.844},
      {"variant": "G56C C63A", "self-cleavage": 0.47},
      {"variant": "G56C C63U", "self-cleavage": 0.709},
      {"variant": "G56C C63G", "self-cleavage": 0.456},
      {"variant": "G50A A51C", "self-cleavage": 1.02},
      {"variant": "G56C U62G", "self-cleavage": 0.59},
      {"variant": "A51U A59G", "self-cleavage": 0.993},
      {"variant": "U53G C57G", "self-cleavage": 0.403},
      {"variant": "U55A U67A", "self-cleavage": 0.921},
      {"variant": "U55A U67G", "self-cleavage": 0.963},
      {"variant": "A51C C54A", "self-cleavage": 0.582},
      {"variant": "G50U C54G", "self-cleavage": 0.781},
      {"variant": "G50A A59C", "self-cleavage": 0.806},
      {"variant": "C54G A59U", "self-cleavage": 0.47},
      {"variant": "G50C G65U", "self-cleavage": 0.774},
      {"variant": "G50A U61G", "self-cleavage": 0.876},
      {"variant": "G50C", "self-cleavage": 0.996},
      {"variant": "G50A", "self-cleavage": 0.999},
      {"variant": "G50U", "self-cleavage": 0.997},
      {"variant": "U53A C66A", "self-cleavage": 0.509},
      {"variant": "G50U A59C", "self-cleavage": 0.682},
      {"variant": "G50C G58A", "self-cleavage": 0.935},
      {"variant": "U55G G58U", "self-cleavage": 0.946},
      {"variant": "G50C G56C", "self-cleavage": 0.456},
      {"variant": "U53A U67C", "self-cleavage": 0.975},
      {"variant": "A52U U69A", "self-cleavage": 1.03},
      {"variant": "U53A G56C", "self-cleavage": 0.411},
      {"variant": "U53A G56A", "self-cleavage": 0.736},
      {"variant": "G50A G68A", "self-cleavage": 1.03},
      {"variant": "G50A U55C", "self-cleavage": 0.79},
      {"variant": "G50A U55G", "self-cleavage": 0.858},
      {"variant": "A52U G65C", "self-cleavage": 0.549},
      {"variant": "A52U G65U", "self-cleavage": 0.664},
      {"variant": "U55G G56C", "self-cleavage": 0.729},
      {"variant": "U55G G56U", "self-cleavage": 0.817},
      {"variant": "G50U A52G", "self-cleavage": 0.976},
      {"variant": "U55A C57G", "self-cleavage": 0.33},
      {"variant": "U55A C57U", "self-cleavage": 0.369},
      {"variant": "U55A C57A", "self-cleavage": 0.34},
      {"variant": "C54U G65U", "self-cleavage": 0.809},
      {"variant": "U55G U64G", "self-cleavage": 0.491},
      {"variant": "U53C U61C", "self-cleavage": 0.342},
      {"variant": "U53C U61A", "self-cleavage": 0.577},
      {"variant": "A52U U64A", "self-cleavage": 0.87},
      {"variant": "A51C U53G", "self-cleavage": 0.703},
      {"variant": "G50A C57A", "self-cleavage": 0.448},
      {"variant": "G50A C57U", "self-cleavage": 0.356},
      {"variant": "G56C A60C", "self-cleavage": 0.295},
      {"variant": "G50U U62C", "self-cleavage": 0.866},
      {"variant": "U55C U62C", "self-cleavage": 0.592},
      {"variant": "U55C U62A", "self-cleavage": 0.445},
      {"variant": "U55C C57G", "self-cleavage": 0.322},
      {"variant": "U55C C57U", "self-cleavage": 0.295},
      {"variant": "U55G C63U", "self-cleavage": 0.626},
      {"variant": "U53C U62C", "self-cleavage": 0.513},
      {"variant": "U49G U69A", "self-cleavage": 1.01},
      {"variant": "U49G U69C", "self-cleavage": 1.06},
      {"variant": "C54G G58A", "self-cleavage": 0.849},
      {"variant": "A51C U55C", "self-cleavage": 0.678},
      {"variant": "A51C U55G", "self-cleavage": 0.576},
      {"variant": "U55C U61G", "self-cleavage": 0.434},
      {"variant": "U55C G68A", "self-cleavage": 0.961},
      {"variant": "U53G C54A", "self-cleavage": 0.873},
      {"variant": "U53G U55G", "self-cleavage": 0.386},
      {"variant": "C54A A59G", "self-cleavage": 0.858},
      {"variant": "C54A A59U", "self-cleavage": 0.497},
      {"variant": "C54A A59C", "self-cleavage": 0.365},
      {"variant": "G56A A59C", "self-cleavage": 0.432},
      {"variant": "A52G A60U", "self-cleavage": 0.506},
      {"variant": "A51C C57G", "self-cleavage": 0.38},
      {"variant": "G50A U69A", "self-cleavage": 0.982},
      {"variant": "U49G U61G", "self-cleavage": 0.991},
      {"variant": "U53C C54U", "self-cleavage": 0.819},
      {"variant": "U55A G68C", "self-cleavage": 1.01},
      {"variant": "G50U U53C", "self-cleavage": 0.909},
      {"variant": "G50U U53G", "self-cleavage": 0.871},
      {"variant": "G50U A60G", "self-cleavage": 0.973},
      {"variant": "G50U A60C", "self-cleavage": 0.382},
      {"variant": "C54A G58A", "self-cleavage": 0.883},
      {"variant": "C54G C66A", "self-cleavage": 0.514},
      {"variant": "C54G C66G", "self-cleavage": 0.533},
      {"variant": "A51G G56A", "self-cleavage": 0.91},
      {"variant": "A51G G56C", "self-cleavage": 0.69},
      {"variant": "G56A G68C", "self-cleavage": 0.992},
      {"variant": "G56A G68U", "self-cleavage": 1.04},
      {"variant": "A52C G68A", "self-cleavage": 0.987},
      {"variant": "A52C G68C", "self-cleavage": 0.978},
      {"variant": "A51G G58A", "self-cleavage": 0.949},
      {"variant": "G50A U64G", "self-cleavage": 0.892},
      {"variant": "G50A U64C", "self-cleavage": 0.874},
      {"variant": "U53A A60U", "self-cleavage": 0.35},
      {"variant": "U53A A60G", "self-cleavage": 0.777},
      {"variant": "U53A A60C", "self-cleavage": 0.324},
      {"variant": "A52U C66G", "self-cleavage": 0.695},
      {"variant": "A51C C63G", "self-cleavage": 0.699},
      {"variant": "C54U G58U", "self-cleavage": 1.02},
      {"variant": "G50A A52G", "self-cleavage": 1},
      {"variant": "C54U A60G", "self-cleavage": 0.903},
      {"variant": "C54A U62A", "self-cleavage": 0.546},
      {"variant": "A52G U61G", "self-cleavage": 0.861},
      {"variant": "A52G U61A", "self-cleavage": 0.89}
    ]}
  ]
}
